Source: IntAct's records for PubMed 33990585

B1: Mitochondrial import receptor subunit TOM70 (Homo sapiens), O94826 (parent)
chain: MAASKPVEAAVVAAAVPSSGSGVGGGGTAGPGTGGLPRWQLALAVGAPLLLGAGAIYLWSRQQRRREARGRGDASGLKRNSERKTPEGRASPAPGSGHPEGPGAHLDMNSLDRAQAAKNKGNKYFKAGKYEQAIQCYTEAISLCPTEKNVDLSTFYQNRAAAFEQLQKWKEVAQDCTKAVELNPKYVKALFRRAKAHEKLDNKKECLEDVTAVCILEGFQNQQSMLLADKVLKLLGKEKAKEKYKNREPLMPSPQFIKSYFSSFTDDIISQPMLKGEKSDEDKDKEGEALEVKENSGYLKAKQYMEEENYDKIISECSKEIDAEGKYMAEALLLRATFYLLIGNANAAKPDLDKVISLKEANVKLRANALIKRGSMYMQQQQPLLSTQDFNMAADIDPQNADVYHHRGQLKILLDQVEEAVADFDECIRLRPESALAQAQKCFALYRQAYTGNNSSQIQAAMKGFEEVIKKFPRCAEGYALYAQALTDQQQFGKADEMYDKCIDLEPDNATTYVHKGLLQLQWKQDLDRGLELISKAIEIDNKCDFAYETMGTIEVQRGNMEKAIDMFNKAINLAKSEMEMAHLYSLCDAAHAQTEVAKKYGLKPPTL

Variants of: B1
Conditions: with orf9b_sars2 orf9b

Question: Which “effect of a mutation on the interaction” value does the source give for E549I here?
Answer: Its value is “decreasing interaction strength”.

Question: Which “effect of a mutation on the interaction” value does the source give for E549A here?
Answer: The value was “decreasing interaction strength”.

Question: Which “effect of a mutation on the interaction” value does the source give for E477A here?
Answer: The value was “decreasing interaction strength”.

Question: For D545A, which “effect of a mutation on the interaction” value is on record?
Answer: Its value is “decreasing interaction strength”.

Question: H583Q was tested. Which “effect of a mutation on the interaction” value did it give?
Answer: Its value is “with no effect”.
